Data on 1 protein can be found in publication PMC6955313 (Proceedings of the National Academy of Sciences of the …, 2019).

The series deals with the molecule itself. In words: time-resolved SAXS/diffraction.

B1: RsaA_(Full-Length), the 98-kDa surface-layer protein (SLP) from Caulobacter crescentus (natural protein)
chain: MAYTTAQLVTAYTNANLGKAPDAATTLTLDAYATQTQTGGLSDAAALTNTLKLVNSTTAVAIQTYQFFTGVAPSAAGLDFLVDSTTNTNDLNDAYYSKFAQENRFINFSINLATGAGAGATAFAAAYTGVSYAQTVATAYDKIIGNAVATAAGVDVAAAVAFLSRQANIDYLTAFVRANTPFTAAADIDLAVKAALIGTILNAATVSGIGGYATATAAMINDLSDGALSTDNAAGVNLFTAYPSSGVSGSTLSLTTGTDTLTGTANNDTFVAGEVAGAATLTVGDTLSGGAGTDVLNWVQAAAVTALPTGVTISGIETMNVTSGAAITLNTSSGVTGLTALNTNTSGAAQTVTAGAGQNLTATTAAQAANNVAVDGGANVTVASTGVTSGTTTVGANSAASGTVSVSVANSSTTTTGAIAVTGGTAVTVAQTAGNAVNTTLTQADVTVTGNSSTTAVTVTQTAAATAGATVAGRVNGAVTITDSAAASATTAGKIATVTLGSFGAATIDSSALTTVNLSGTGTSLGIGRGALTATPTANTLTLNVNGLTTTGAITDSEAAADDGFTTINIAGSTASSTIASLVAADATTLNISGDARVTITSHTAAALTGITVTNSVGATLGAELATGLVFTGGAGADSILLGATTKAIVMGAGDDTVTVSSATLGAGGSVNGGDGTDVLVANVNGSSFSADPAFGGFETLRVAGAAAQGSHNANGFTALQLGATAGATTFTNVAVNVGLTVLAAPTGTTTVTLANATGTSDVFNLTLSSSAALAAGTVALAGVETVNIAATDTNTTAHVDTLTLQATSAKSIVVTGNAGLNLTNTGNTAVTSFDASAVTGTGSAVTFVSANTTVGEVVTIRGGAGADSLTGSATANDTIIGGAGADTLVYTGGTDTFTGGTGADIFDINAIGTSTAFVTITDAAVGDKLDLVGISTNGAIADGAFGAAVTLGAAATLAQYLDAAAAGDGSGTSVAKWFQFGGDTYVVVDSSAGATFVSGADAVIKLTGLVTLTTSAFATEVLTLA
With B1, the binding result was “binds”.
